The source of these data is paper PMC8930179.

The term stoichiometry N denotes the number of molecules, sites or subunits per partner or assembly.

This assay has as its target B38-CAP. Nature of the assay: SEC. Background: Size exclusion chromatography separates by hydrodynamic size, large species first.

Substance B38-CAP (enzyme) came in with a stoichiometry N of 2.
